How the values were obtained:
[1] = target: APE1 (apurinic/apyrimidinic endonuclease 1) (human, UniProt P27695 1-318); assay: EMSA
ISY1 = target: T1, ISY1 (human, UniProt Q9ULR0 1-285); assay: EMSA
T1 sequence: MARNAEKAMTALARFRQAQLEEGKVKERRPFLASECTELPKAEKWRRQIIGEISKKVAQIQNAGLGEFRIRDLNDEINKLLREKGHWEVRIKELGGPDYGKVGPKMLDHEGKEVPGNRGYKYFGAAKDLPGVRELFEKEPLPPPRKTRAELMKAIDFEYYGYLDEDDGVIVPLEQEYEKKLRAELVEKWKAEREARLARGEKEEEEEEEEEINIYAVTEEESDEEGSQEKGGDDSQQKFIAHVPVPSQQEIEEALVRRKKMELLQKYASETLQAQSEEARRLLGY

Chain of APE1 (apurinic/apyrimidinic endonuclease 1) (P27695 whole entry): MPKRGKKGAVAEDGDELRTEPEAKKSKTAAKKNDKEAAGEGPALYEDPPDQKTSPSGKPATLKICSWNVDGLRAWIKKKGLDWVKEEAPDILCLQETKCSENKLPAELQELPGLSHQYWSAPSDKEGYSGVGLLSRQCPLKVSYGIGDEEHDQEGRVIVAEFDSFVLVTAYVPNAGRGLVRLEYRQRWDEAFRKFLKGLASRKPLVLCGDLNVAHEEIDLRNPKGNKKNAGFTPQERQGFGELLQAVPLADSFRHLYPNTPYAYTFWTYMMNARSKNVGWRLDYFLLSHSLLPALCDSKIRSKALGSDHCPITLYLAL

B1: 37-mer control DNA duplex (no AP site) (dsDNA)
DNA 1: CCTGCAGCTGGTGCAAAAGTATTGCGGCGTGTACGGT
DNA 2: ACCGTACACGTTTCCTTACGGGGTCACCAGCTGCAGG
binding result [1]: no binding | binding result (ISY1): no binding
